Laboratory results as given in patent publication US8003596B2, “P-selectin targeting ligand and compositions thereof” (Astellas Pharma Inc., priority 2003, dated 2011).
Values belong to the molecule of their own block, whether it stands above or below them. Where no end group is shown, it is not given here.

Tests used:
[1] = target: T1, human P-selectin/IgG-Fc (Homo sapiens, UniProt P16109); test: Competition assay: displacement of TM11-PO complex from immobilised human P-selectin/IgG-Fc; format: binding; details: competition with TM11-PO; free peptide; read-out: IC50 (affinity for P-selectin)
T1 construct: purchased R&D Systems Europe Ltd., Abingdon, United Kingdom
T1 sequence (P16109 with tags, fused parts or gaps limits assumed): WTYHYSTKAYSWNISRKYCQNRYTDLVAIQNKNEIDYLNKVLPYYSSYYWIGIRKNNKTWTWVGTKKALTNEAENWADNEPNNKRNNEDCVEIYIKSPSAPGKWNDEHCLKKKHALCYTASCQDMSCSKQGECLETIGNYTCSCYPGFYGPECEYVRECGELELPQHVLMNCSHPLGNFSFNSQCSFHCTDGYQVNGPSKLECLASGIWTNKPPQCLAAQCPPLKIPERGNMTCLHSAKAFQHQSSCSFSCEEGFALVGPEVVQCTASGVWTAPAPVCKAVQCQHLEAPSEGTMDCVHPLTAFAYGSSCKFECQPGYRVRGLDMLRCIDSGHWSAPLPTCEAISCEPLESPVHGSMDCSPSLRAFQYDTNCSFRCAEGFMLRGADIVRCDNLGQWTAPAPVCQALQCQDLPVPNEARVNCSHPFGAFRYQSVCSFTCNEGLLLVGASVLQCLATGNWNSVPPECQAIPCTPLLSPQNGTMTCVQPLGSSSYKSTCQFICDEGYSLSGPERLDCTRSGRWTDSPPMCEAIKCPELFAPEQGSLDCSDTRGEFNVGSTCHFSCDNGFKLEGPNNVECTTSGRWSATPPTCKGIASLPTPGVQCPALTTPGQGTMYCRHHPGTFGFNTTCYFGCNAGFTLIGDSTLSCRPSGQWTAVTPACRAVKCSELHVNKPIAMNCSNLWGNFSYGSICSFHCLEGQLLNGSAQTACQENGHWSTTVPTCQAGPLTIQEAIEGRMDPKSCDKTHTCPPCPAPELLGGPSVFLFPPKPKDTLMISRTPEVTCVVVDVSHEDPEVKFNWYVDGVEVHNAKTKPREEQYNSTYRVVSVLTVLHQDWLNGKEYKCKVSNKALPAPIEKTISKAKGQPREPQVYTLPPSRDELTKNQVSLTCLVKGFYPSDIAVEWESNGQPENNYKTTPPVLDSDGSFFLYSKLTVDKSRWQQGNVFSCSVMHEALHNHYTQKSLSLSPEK
Method: (§1) TM11-PO, a tetrameric TM11/strepPO complex described by Molenaar et al. (Blood 100: 3570-3577 (2002)), was freshly prepared by incubating streptavidin-peroxidase (Amersham Life Science, Little Chalfont, United Kingdom) (strep-PO; 8.4 μl, 2.0 μM) and biotin-CDVEWVDVSSLEWDLPC (SEQ ID NO: 2; synthesized by Dr. Vander Zee, Department of Immunology, University of Utrecht, Utrecht, the Netherlands) (TM11-biotin; 1.5 μl 190 mM) for 2 hours at room temperature in assay buffer (20 mM HEPES, 150 mM NaCl, 1 mM CaCl2, pH 7.4). For competition studies, a 96 wells microtiter plate (high binding, flat bottom, Costar, Corning, U.S.A) was coated overnight at 4° C. with 10 μg/ml goat anti-human IgG (Sigma-Aldrich, Zwijndrecht, the Netherlands) in coating buffer (50 mM NaHCO3, pH 9.6). Subsequently, wells were washed with assay buffer and incubated for 1 hour at 37° C. with blocking buffer (3% BSA in assay buffer). After washing with assay buffer the wells were incubated for 2 hours at 37° C. with human P-selectin/IgG-Fc (R&D Systems Europe Ltd., Abingdon, United Kingdom) (0.3 μg/ml). Subsequently, wells were washed with assay buffer and incubated for 1 hour at 4° C. with the TM11-PO complex. The wells were washed six times with washing buffer (0.1% Tween 20 in assay buffer). […] The reaction was halted by addition of 2 M H2SO4 and the absorbance was measured at 450 nm.

[2] = target: T2, human P-selectin/IgG-Fc (R&D Systems) (human, UniProt P16109 42-771); test: competition ELISA against TM11-PO on captured human P-selectin/IgG-Fc
T2 construct: It was captured on plates coated with goat anti-human IgG; not shown: IgG Fc; it was captured by goat anti-human IgG
T2 sequence (looked up): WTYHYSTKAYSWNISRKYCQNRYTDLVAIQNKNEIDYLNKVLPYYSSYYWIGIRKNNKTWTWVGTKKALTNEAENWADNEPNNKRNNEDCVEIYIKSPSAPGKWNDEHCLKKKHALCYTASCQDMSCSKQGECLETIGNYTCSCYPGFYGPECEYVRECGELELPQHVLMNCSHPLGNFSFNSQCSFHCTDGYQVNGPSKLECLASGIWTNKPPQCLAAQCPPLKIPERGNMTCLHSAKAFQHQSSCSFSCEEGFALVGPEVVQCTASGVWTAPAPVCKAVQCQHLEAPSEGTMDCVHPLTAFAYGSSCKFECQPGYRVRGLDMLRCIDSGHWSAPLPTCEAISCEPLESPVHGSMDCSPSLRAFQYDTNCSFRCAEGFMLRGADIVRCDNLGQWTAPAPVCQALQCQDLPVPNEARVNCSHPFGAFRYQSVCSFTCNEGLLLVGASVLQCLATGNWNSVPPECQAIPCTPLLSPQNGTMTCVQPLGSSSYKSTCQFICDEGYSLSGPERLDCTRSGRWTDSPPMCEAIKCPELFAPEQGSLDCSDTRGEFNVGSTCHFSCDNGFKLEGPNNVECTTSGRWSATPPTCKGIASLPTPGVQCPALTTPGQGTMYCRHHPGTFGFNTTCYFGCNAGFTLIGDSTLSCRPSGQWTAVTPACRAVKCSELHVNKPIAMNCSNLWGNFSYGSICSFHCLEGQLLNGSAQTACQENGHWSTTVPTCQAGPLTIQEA
Method: as §1, with “The affinity of the liposomal drug delivery system prepared in example 2 was evaluated using a competition assay. TM11-PO,” for “TM11-PO,”, “biotin-[…]” for “biotin-CDVEWVDVSSLEWDLPC”, “CaCl_2,” for “CaCl2,”, “NaHCO_3,” for “NaHCO3,”, “complex.” for “complex. The wells were washed six times with washing buffer (0.1% Tween 20 in assay buffer).”, “H_2SO_4” for “H2SO4”

[3] = target: T3, human P-selectin on CHO cells stably transfected with human P-selectin (CHO-P cells) (human, UniProt P16109 42-830); test: cell-based or functional assay
T3 sequence (looked up): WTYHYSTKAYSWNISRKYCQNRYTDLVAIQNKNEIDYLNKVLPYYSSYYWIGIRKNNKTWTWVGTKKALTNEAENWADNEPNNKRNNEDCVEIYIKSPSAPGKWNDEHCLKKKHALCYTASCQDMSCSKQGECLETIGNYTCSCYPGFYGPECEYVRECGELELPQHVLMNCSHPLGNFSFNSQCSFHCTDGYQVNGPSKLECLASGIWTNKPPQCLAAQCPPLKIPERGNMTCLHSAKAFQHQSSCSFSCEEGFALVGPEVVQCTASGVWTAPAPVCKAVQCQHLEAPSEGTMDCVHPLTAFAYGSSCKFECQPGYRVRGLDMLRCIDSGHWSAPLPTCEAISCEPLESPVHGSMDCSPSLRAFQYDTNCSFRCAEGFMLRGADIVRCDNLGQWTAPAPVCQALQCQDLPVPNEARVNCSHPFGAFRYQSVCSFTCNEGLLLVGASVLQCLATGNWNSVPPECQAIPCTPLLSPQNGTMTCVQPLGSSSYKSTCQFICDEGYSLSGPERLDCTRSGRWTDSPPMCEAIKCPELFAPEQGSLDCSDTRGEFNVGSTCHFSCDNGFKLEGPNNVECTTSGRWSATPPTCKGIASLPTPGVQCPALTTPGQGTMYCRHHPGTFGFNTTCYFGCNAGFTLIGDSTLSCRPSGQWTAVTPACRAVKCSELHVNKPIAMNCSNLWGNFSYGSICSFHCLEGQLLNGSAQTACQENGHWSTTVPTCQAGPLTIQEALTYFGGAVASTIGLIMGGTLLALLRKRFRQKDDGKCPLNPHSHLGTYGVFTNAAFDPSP

[4] = target: T4, human P-selectin/IgG-Fc (R&D Systems) (human), P16109; test: competition ELISA against TM11-PO on captured human P-selectin/IgG-Fc
T4 chain: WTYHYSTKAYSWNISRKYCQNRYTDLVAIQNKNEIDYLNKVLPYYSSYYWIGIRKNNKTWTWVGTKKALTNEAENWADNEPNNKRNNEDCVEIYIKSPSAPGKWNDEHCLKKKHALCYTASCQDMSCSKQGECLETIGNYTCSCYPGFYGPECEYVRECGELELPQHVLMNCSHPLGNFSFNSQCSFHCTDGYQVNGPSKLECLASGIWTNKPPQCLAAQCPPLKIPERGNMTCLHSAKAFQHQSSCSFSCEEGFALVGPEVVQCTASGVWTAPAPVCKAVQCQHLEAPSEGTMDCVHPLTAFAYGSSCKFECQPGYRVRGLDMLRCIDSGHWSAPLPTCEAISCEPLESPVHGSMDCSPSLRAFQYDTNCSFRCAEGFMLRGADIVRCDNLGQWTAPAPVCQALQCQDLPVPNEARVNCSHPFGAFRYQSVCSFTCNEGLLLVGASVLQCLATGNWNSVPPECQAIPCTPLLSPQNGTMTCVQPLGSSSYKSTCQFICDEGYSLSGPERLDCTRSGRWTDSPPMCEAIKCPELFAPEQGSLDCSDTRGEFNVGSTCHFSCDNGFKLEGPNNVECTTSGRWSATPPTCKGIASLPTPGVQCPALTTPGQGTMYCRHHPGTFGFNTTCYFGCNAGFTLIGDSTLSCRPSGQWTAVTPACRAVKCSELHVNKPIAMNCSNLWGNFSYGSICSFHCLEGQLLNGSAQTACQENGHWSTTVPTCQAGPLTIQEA

IC50 [1]: 7 µM
Molecule: H-DVEWVDVSY-OH [Pstar, H2N-DVEWVDVSY-COOH]

IC50 [2]: 0.00078 µM
B1: P100 liposomes: liposomes carrying 100 DSPE-PEG3400-(125I)-Pstar conjugates per liposome (other)
peptide: DVEWVDVSY
modifications: not fully specified; also: 125I label (ICl method)
notes: About 70 nm EYPC/cholesterol liposome; The peptide-PEG-lipid conjugate is anchored in its surface together with DSPE-PEG2000 (5 mole % in total); also called LP100

relative transfection (glucocorticoid responsive element-driven Firefly luciferase, corrected by Renilla luciferase) in CHO-P cells [3]: 5 fold
IC50 [2]: 0.00034 µM
B2: P500 liposomes: liposomes carrying 500 DSPE-PEG3400-(125I)-Pstar conjugates per liposome (other)
peptide: DVEWVDVSY
modifications: not fully specified; also: 125I label (ICl method)
notes: About 70 nm EYPC/cholesterol liposome; The peptide-PEG-lipid conjugate is anchored in its surface together with DSPE-PEG2000 (5 mole % in total); also called LP500

IC50 [4]: 7 µM
B3: human P-selectin binding peptide H2N-…-COOH (Pstar) (peptide)
peptide: DVEWVDVSY
modifications: not checked
